Measured values published in patent publication US20220040319A1 (Regeneron, published 2022).

B1: H4H16445D (bispecific antibody, human IgG4, V domains shown)
VH 1: QVQLVESGGGVVQPGGSLRLSCAASGFTFSGYGMHWVRQAPGKGLEWMAVIWYDGSNDYYPDSVKGRFTISRDNSKNTLYLQMNSLRVEDTAVYYCARDAWDLLRSFDYWGQGTLVTVSS
VH 2: EVQLVESGGGLVQPGGSLRLSCAASGFIVTTNYMTWLRQAPGKGLEWVSLIYSSGHTYYADSVKGRFTISRHNSKNTLYLQMDSLRAEDTAVYYCASAFAADVFDIWGQGTMVTVSS
VL: not shown
B2: H4H16446D (bispecific antibody, human IgG4, V domains shown)
VH 1: QVQLVESGGGVVQPGRSLRLSCAVSGFTFSSYGMHWVRQAPGKGLEWVANIWYDGTNDYYPYSVKGRFTISRDNSQNTLYLQMNSLRAEDTAVYYCAREDFINYRSFDYWGQGTLVTVSS
VH 2: B1 VH 2
VL: not shown
B3: H4H16449D (bispecific antibody, human IgG4, V domains shown)
VH 1: QVQLVESGGGVVQPGRSLRLSCAASGFTFSSFAMHWVRQAPGKGLEWVAVIWYDGSNDYYAASVKGRFTISRDNSKNTLYLEMNRLRAEDTAVYHCARDNWNYWGGMDVWGQGTTVTVSS
VH 2: B1 VH 2
VL: not shown
B4: H4H16448D (bispecific antibody, human IgG4, V domains shown)
VH 1: QVQLVESGGGVVQPGRSLRLSCVASGFSFSNFGMHWVRQAPGKGLEWVAIIWYDGSNKYYSDSVKGRFTISRDNSKNTLYLQMNSLRVDDTAVYYCARFDRWKFDAFDIWGQGTMVTVSS
VH 2: B1 VH 2
VL: not shown
B5: H4H16447D (bispecific antibody, human IgG4, V domains shown)
VH 1: QVQLVESGGGVVQPGRSLRLSCAASGFTFSSYAMHWVRQAPGRGLEWVAVIWHDGDVEYYVDSVKDRFTISRDNSKSTLYLQMNSLRAEDTALYYCAREAWDLLRPFDYWGQGTLVTVSS
VH 2: B1 VH 2
VL: not shown
B6: H4H13316P2 (antibody, human IgG4, V domains shown)
VH: EVQLVESGGGLVQPGGSLRLSCAASGFTFRSYVMSWFRQAPGKGLEWVSGMSGSGGSTSYADSVKGRFTISRDNSKNTLYLLMNSLRTEDTAVYYCAKENGANWNYGYYGMDVWGQGTTVTVSS
VL: not shown
notes: human IgG4 Fc (H4H), bivalent monospecific
B7: H4H13309P2 (antibody, human IgG4, V domains shown)
VH: QVQLVQSGTEVKEPGASVKVSCKASGYSFTTYGISWLRQAPGQGLEWMGWISTYNGDTISAQMLQDRVTLTADTSTRTAYMELRSLRSDDTAVYYCARGHEYDSLVYSYWGQGTLVTVSS
VL: not shown
notes: as for B6
B8: H4H13319P2 (antibody, human IgG4, V domains shown)
VH: B3 VH 1
VL: not shown
notes: as for B6
B9: H4H13290P2 (antibody, human IgG4, V domains shown)
VH: QVQLQESGPGLVKPSETLSLTCTVSGDSISSYYWTWIRQPPGKGLEWIGYIFYRGGTTYNPSLKSRVTISVDTSKNQFSLKLRSVTAADTAVYYCARGDDLLVVTSVYWYIDLWGRGTLVTVSS
VL: not shown
notes: as for B6
B10: H4H13311P2 (antibody, human IgG4, V domains shown)
VH: B5 VH 1
VL: not shown
notes: as for B6
B11: H4H13325P2 (antibody, human IgG4, V domains shown)
VH: EVQLLESGGGWVQPGGSLRLSCAASGFAFSNYAMNWVRQTPGKGLEWVSVISSSGGNTYYADSVKGRFAISRDNSRDTLHLQMNRLRVEDTAVYYCAKEIRPYYDLSYYYGMDVWGQGTTVTVSS
VL: not shown
notes: as for B6
B12: H4H13331P2 (antibody, human IgG4, V domains shown)
VH: QVQLQESGPGLVKSSETLSLTCTVSGGSIRNFYWSWLRQPPGKGLEWIGHINYNGGTDYNPSLKSRVTISVDTSKNQFSLNLNSVTAADTAVYYCARQRFYGMDVWGPGTTVTVSS
VL: not shown
notes: as for B6
B13: H4H13313P2 (antibody, human IgG4, V domains shown)
VH: QVQLVESGGGVVQPGRSLRLSCSASGFSFSHFGMHWVRQVPGGGLEWVTSIWFDGSNRYYADSLKGRFTISRDNSKNTLYLEMNSLRAEDTAVYYCVREGILGTTNPYDVFDVWGQGTMVTVSS
VL: not shown
notes: as for B6
B14: H4H13291P2 (antibody, human IgG4, V domains shown)
VH: B1 VH 1
VL: not shown
notes: as for B6
B15: H4H13318P2 (antibody, human IgG4, V domains shown)
VH: B4 VH 1
VL: not shown
notes: as for B6

Molecular target: human MET on cells (human, UniProt P08581 25-1390); for % Inhibition, HEK293/SRE-Luc Blocking Activity (HGF, 1 h mAb pre-bind): test concentration or dose not given here
Sequence (P08581 25-1390 limits assumed, form in doubt): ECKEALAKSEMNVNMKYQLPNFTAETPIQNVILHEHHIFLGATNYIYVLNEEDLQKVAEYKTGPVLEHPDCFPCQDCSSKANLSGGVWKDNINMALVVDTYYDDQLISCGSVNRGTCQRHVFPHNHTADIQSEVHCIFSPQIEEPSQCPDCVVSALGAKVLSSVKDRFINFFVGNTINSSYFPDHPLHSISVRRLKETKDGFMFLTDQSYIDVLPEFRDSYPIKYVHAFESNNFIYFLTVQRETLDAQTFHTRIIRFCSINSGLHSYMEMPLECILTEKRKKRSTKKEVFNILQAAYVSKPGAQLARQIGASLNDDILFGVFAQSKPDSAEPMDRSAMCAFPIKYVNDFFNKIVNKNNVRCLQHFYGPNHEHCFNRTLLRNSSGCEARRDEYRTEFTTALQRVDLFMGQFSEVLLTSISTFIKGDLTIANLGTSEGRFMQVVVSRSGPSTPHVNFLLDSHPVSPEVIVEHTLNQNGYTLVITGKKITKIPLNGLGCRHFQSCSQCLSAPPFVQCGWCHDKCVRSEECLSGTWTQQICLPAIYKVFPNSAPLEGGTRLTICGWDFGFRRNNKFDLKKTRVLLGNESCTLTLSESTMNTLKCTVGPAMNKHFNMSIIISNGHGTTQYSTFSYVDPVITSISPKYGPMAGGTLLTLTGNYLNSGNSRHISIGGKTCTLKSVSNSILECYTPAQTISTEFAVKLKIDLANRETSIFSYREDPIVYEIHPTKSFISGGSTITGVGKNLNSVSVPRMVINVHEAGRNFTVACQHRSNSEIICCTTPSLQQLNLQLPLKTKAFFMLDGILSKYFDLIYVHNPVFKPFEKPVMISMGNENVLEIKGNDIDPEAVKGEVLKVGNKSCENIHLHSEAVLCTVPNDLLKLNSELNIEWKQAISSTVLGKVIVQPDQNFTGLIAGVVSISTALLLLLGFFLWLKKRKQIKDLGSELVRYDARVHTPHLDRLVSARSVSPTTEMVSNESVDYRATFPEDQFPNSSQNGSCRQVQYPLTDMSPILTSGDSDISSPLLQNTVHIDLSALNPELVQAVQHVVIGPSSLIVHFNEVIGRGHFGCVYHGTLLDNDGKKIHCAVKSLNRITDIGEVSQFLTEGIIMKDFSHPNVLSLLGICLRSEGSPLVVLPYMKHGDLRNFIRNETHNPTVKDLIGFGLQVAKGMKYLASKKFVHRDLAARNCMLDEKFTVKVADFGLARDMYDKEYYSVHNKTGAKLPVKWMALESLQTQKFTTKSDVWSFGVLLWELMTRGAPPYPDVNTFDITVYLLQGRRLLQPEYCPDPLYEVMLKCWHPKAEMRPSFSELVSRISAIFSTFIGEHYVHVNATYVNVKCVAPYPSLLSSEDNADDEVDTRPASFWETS
Assay: cell-based or functional assay

| Binder | % Inhibition, HEK293/SRE-Luc Blocking Activity (HGF, 1 h mAb pre-bind) [%] | EC50, Ligand (HGF)-Independent HEK293/SRE-Luc Activation [nM] | Fold Response, Ligand (HGF)-Independent HEK293/SRE-Luc Activation [fold] | IC50, HEK293/SRE-Luc Blocking Activity (HGF, 1 h mAb pre-bind) [nM] |
| --- | --- | --- | --- | --- |
| B1 | 81 | 1 | 4.3 | 0.52 |
| B2 | 83 | 1.4 | 4 | 1 |
| B3 | 85 | 0.42 | 4.2 | 0.32 |
| B4 | 87 | 0.91 | 4.3 | 0.62 |
| B5 | 76 | 1.4 |  |  |

Molecular target: T1, hMET.mFc (dimeric human MET) (human, UniProt P08581 27-307)
T1 construct: soluble dimeric MET protein
T1 sequence (P08581 other isoform, or with tags, fused parts or gaps limits assumed, chain 1 of 2): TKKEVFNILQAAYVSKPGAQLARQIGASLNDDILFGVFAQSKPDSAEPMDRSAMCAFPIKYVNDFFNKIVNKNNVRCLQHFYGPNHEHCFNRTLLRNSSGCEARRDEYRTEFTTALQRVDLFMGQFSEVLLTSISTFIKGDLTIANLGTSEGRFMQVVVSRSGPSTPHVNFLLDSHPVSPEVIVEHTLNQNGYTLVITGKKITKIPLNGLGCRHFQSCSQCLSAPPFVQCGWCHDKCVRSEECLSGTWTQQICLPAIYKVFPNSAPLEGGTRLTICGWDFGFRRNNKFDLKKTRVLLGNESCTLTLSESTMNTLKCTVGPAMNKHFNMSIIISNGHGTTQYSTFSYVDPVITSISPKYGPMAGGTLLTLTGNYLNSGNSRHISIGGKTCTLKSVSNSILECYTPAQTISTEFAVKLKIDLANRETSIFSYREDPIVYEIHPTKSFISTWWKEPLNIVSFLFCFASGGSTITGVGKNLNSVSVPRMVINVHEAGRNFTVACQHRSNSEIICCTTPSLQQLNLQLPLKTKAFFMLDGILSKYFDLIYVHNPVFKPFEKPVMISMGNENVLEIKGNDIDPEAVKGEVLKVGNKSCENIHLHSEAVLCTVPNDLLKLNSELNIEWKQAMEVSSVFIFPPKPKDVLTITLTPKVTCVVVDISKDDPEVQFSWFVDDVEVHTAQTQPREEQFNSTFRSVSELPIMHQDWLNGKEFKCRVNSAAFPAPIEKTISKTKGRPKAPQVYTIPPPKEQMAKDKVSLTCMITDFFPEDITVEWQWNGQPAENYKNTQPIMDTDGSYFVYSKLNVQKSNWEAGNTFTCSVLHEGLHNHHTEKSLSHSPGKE
T1 sequence (P08581 27-307 limits assumed, chain 2 of 2): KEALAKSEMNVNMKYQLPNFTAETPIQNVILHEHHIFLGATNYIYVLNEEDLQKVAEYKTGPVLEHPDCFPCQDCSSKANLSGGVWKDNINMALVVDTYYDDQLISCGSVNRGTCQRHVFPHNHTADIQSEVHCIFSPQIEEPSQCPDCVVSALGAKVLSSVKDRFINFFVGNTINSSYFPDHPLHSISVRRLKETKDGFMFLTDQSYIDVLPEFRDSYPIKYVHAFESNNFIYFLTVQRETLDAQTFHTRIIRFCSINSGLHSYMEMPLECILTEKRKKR
Assay: SPR 37C, antibody captured
Procedure: (§1) The anti-Met antibodies tested in this example were bivalent monospecific binders of MET.
(§2) Kinetic association (kₐ) and dissociation (kd) rate constants were determined by fitting the real-time sensorgrams to a 1:1 binding model using Scrubber 2.0c curve fitting software. Binding dissociation equilibrium constant (KD) and dissociative half-life (t1/2) were calculated from the kinetic rate constants as: […]

| Binder | Kd [nM] | T½ [min] | koff [s⁻¹] | kon [M⁻¹ s⁻¹] |
| --- | --- | --- | --- | --- |
| B6 | 0.367 | 107 | 0.000108 | 293000 |
| B7 | 0.657 | 43.3 | 0.000267 | 406000 |
| B8 | 1.42 | 21.3 | 0.000542 | 382000 |
| B9 | 0.513 | 36.6 | 0.000315 | 615000 |
| B10 | 1.55 | 24.7 | 0.000468 | 302000 |
| B11 | 0.605 | 62.4 | 0.000185 | 306000 |
| B12 | 0.244 | 74.1 | 0.000156 | 639000 |
| B13 | 1.19 | 12.9 | 0.000893 | 750000 |
| B14 | 1.02 | 34 | 0.000339 | 333000 |
| B15 | 0.467 | 70.2 | 0.000165 | 352000 |

Molecular target: T2, hMet.mmh (human MET extracellular domain with C-terminal myc-myc-hexahistidine tag) (human, UniProt P08581 309-914; P08581 27-307)
T2 construct: soluble monomeric MET; also called monomeric human MET
T2 sequence (P08581 other isoform, or with tags, fused parts or gaps limits assumed, chain 1 of 2): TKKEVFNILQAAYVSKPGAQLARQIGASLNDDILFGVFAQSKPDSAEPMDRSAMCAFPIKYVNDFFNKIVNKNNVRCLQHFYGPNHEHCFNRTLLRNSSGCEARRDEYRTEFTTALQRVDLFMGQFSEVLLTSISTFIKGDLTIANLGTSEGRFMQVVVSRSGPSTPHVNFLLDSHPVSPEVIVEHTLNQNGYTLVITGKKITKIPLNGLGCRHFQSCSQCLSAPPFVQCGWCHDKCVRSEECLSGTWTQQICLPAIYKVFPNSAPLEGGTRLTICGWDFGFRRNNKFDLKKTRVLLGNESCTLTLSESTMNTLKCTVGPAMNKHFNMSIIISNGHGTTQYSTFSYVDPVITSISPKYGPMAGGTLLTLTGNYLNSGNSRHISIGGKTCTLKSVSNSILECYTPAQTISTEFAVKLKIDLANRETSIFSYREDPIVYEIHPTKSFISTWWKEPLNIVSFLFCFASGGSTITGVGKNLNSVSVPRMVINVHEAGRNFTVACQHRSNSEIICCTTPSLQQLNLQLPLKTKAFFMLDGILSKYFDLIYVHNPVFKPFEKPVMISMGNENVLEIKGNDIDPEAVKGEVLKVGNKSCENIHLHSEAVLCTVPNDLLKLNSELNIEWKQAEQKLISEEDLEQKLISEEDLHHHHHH
T2 sequence (P08581 27-307 limits assumed, chain 2 of 2): as the sequence (P08581 27-307 limits assumed, chain 2 of 2) above
Assay: SPR 37C, antibody captured
Procedure: as §1, §2

| Binder | Kd [nM] | T½ [min] | koff [s⁻¹] | kon [M⁻¹ s⁻¹] |
| --- | --- | --- | --- | --- |
| B6 | 19.3 | 7.6 | 0.00151 | 78200 |
| B7 | 6.38 | 19.7 | 0.000587 | 92000 |
| B8 | 76.5 | 4.9 | 0.00238 | 31100 |
| B9 | 3.17 | 14.4 | 0.000803 | 253000 |
| B10 | 116 | 2.2 | 0.00519 | 44800 |
| B11 | 24.8 | 4.9 | 0.00236 | 95300 |
| B12 | 3.35 | 13.2 | 0.000873 | 261000 |
| B13 | 64.9 | 2 | 0.0057 | 87800 |
| B14 | 93.4 | 4.8 | 0.00238 | 25500 |
| B15 | 88.3 | 4 | 0.00292 | 33000 |
